Reference: the supplement of paper PMC9170038

What follows are sequences tested on K4 kissing-loop RNA reporter (assay: apparent KD of K4 kissing-loop reporter; higher = weaker reporter binding). Details: Eterna round: R107; input ligand: FMN 200 uM.
Procedure: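 RNA-MaP round R107: designed RNA switches with theophylline, tryptophan, arginine or FMN aptamers are transcribed on-chip within common flanks. They are titrated with a labelled K4 kissing-loop RNA reporter in RNA-MaP buffer (100 mM Tris pH 7.5, 80 mM KCl, 4 mM MgCl2), without ligand or with the indicated ligand. Median apparent KD per design.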
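Further: bound reporter read as fluorescence of individual clusters on recovered sequencing chips by microscopy, with normalized cluster intensities fitted with a binding model.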

| Sequence | apparent KD of K4 kissing-loop reporter |
| --- | --- |
| UGUUUUUACUGAAGGAGCGGCAAUUGAUACGUAGAUAUAGUGAUGUUAUAUAAGAUAGAGAGCCAGGUAGGUCGCAGAGUGUAUC [ExArgB.aB] | 217 nM |
| UUUAUAAAGUCGGCCGCCACUGGAUUUAUGUUUGUUUCGUCUGGAUCAAAGUGAUGUUUUGAGUCCAGGACCGGGACAUUUGUUA [whbob_Ex_Tryp_B_w38] | 88.9 nM |
| UCGAACGAUGGAAGGAGCGCUCGUCAGUCCUGCGAGUGAUGUUCGUGGGUAAAUAGUCGCGAGCAGGUAGGUCGCCAUCUUGGGC [Reriat] | 153 nM |
| CCAUCCGAGUCGGCCGCCACUUUGAGUGAUGUUUGGAGUCUGAGUCAACAUAAAUACUUAGUUUAAAGGACCGGGACUUCGGAUG [theeternabot_exclusion_KL_Trp_B_7] | 773 nM |
| UGGAGUUGACGAAAAGUCAACUCCUGAGAUACCAGUGACGAAAGUCACCCUUGGCAGCUCACUCCCAGUGAUGUUGGUUCAUAAG [#04 K4 Theophylline A Same State] | 328 nM |
| GGCACGGUGACGCGGCUGCCGUGCGCUUGGGAGGAUAUGUUUCGUGACAGAAGGCCCAGUGAUGUUGGGUCUGUUCAAAAGGACU [Edmatianri] | 339 nM |
| UGACUGGAUGGAAGGAGCGCUAAACUCCUAGUGAUGUUAGGGACACGAGGCAAAGCCUCGAAGCAGGUAGGUCGCCAUCUAGUCU [FiskerMod 22 - Jieux - Same State - Arginine B] | 184 nM |
| ACAGGAUCGAAAGAUCCUGAGCAGUCAAACCGAGGACCGGUACGGCCGCCACUCGGAGUGAUGUUCCGAAGACUGCAAAAUAAAA [#SwitchBubble 1] | 539 nM |
| AGUAAUGAGUGAUGUUCAAUUAGUAAGGAUACCAGUAAUUCAAAAUGCCCUUGGCAGCUUAACGCUACCAAUAGAUUAAUAAUGG [First try - Theophylline A] | 128 nM |
| UAUUCUUAUCUUAGUUGAUUUCUAAUUAAACGAGGACCGGUACGGCCGCCACUCGGUUAUGAGUGAUGUUCAUGGAAUUACAUAA [JR_SSTryptoA_Sub020] | 275 nM |
| AAGUGUGUGGCGGCCGCCACUAGAAUCCAGUGAUGUUGGAGAUAUCACGUAAGUGAUAUCCAACAUAGGACCGGGCCAUAUAGAA [Same State - Tryptophan B (Freestyle 12)] | 142 nM |
| AAUGGGUGAUAAGGAUAUCCACCUCACAAACCAAGAGUGAUGUUCGUUGGUCCAUGGACAAUAUGUGGAGAAGGUAUAGUGAUUA [theeternabot_exclusion_KL_FMN_B_48] | 855 nM |
| UGUGAGCUGUCGACAAAAGUCGACUAAAACGAGGAUAUGACGAAAGUCAGAAGGCGUCAAUAAUGGAGUGAUGUUCCUGCUCACU [FmnA 9 #SwitchBubble #K4Late] | 256 nM |
| GCCGCAAGGCUAGCAGCAAUAGGCGCUCGCUAGGAUAUCUGGAAACAGAGAAGGAGCUGGAGUGAUGUUUUACCUCCUUGUUAUU | 1000 nM |
| GCAUCCAUGGCAGGAUAUAGGUUCGUGGAGUGAUGUUCCAUAGCCCGAGUGAUGUUCGUUAUCCGCCUAGAAGGGCCAUGGAUGC [whbob_Ex_FMNB__2th213] | 247 nM |
| AGGUCACCACUACAGUGAUGUUGUAGGGAGCAGGAUAUGCAGAAAUGCAGAAGGGCUCGCUCCCGGUGACCGAAUGAAACAUUCA [Omei KL FMN A SS A v6] | 432 nM |
| GUUACGCAUGGAAGGAGCGCAUGCUCAACAAUAAGCUCAGUGAUGUUGAGCAAAAUUAAAAUGCAGGUAGGUCGCCAUGUGUAAC [Ex Arginine B K4 28] | 542 nM |
| GGUAGCAUGGCGGCCGCCACUGAGGCCCUAUACGAGUCCUAAACAACCUAGUGAUGUUAGGAGUCCAGGACCGGGCCAUGCUACC | 271 nM |
| AAAAGCCUACAGGAUACCAGCCGAAUACUAAAAGGCUGGAGUGAUGUUCCAGCUUGCCGCGGCCCUUGGCAGCCUAGCUGGGUGA [Soatriti] | 248 nM |
| GCCAGAUAGACGGCCGCCACUUAUAAGUUUCAGUGAUGUUGGAACGGCAAAUGCCGAACACAAUAGAGGACCGGGUCAACUGGCG [Same State Tryptophan B GF 1] | 920 nM |
| CCAUCGCUAUUCGAUACCAGCUAAAUAUAAUAUAACCAGUGAUGUUGGUAUAUAAAUAUAAGCCCUUGGCAGCGAAUAGUGAUGG [Theophylline B K4 30] | 139 nM |
| AGAUCUGUAACAGAUACCAGAGGACGAUGAUCGGAUAGUGAUGUUAUCUAUCAGUCGUCGCUCCCUUGGCAGCUGUUACAGAUCA [Omei KL Theo B SS B v2] | 839 nM |

| Sequence | apparent KD of K4 kissing-loop reporter |
| --- | --- |
| UCGAAAUGCGACUCCUAGUUACACCGGGAAGGAGCGUGGAUAACCGCAGGUAGGUCGCCCGGAAGCCGGACCAGUGAUGUUGGUC [Exclusion Arginine A Gf 28] | 207 nM |
| AAAAUAACCCAGUGAUGUUGGUCUCCAGAUACCAGCGACGAAAGUCGCCCUUGGCAGCUGUGGACGUACAAAAUAAGUACGUCCU | 661 nM |
| UACAUUGCAGUCUUCUUCGUCCUAGAUGACUAGGAUAUCAGGAAACUGAGAAGGAGUCACUGCAGUGAUGUUGCAGCUAGGACGA [KL-SSFMN-A9] | 110 nM |
| GCUAGUUUGGAAGGAUAUUCGUGCGAUCAAGUCAAACUUUACUGAGGGCGUUUUGGAGUGAUGUUCGAAGAAGGUCCCUUACUUA [theeternabot_exclusion_KL_FMN_B_28] | 1400 nM |
| ACUGAAAGAUCUGAUACCAGACUUUUUGUAUUUAUUAAAACUAGUGAUGUUAGUUUAUCUGUCCCUUGGCAGCAGUUUCUACAGA [JR_Nu_ExcTheophyB_Sub023] | 128 nM |
| CAUACGCAUGGAGGAUAUGAGAUUACUCAUAUUAUUUAAUAUUCUCAGUGAUGUUGAGAUAUAAACUCAGAAGGCCAUGUGUAUG [Ex FMN B 1] | 184 nM |
| GCGGCGGGCCAAGGAUAUAUUUUGGAGUGAUGUUGUUCAUUUAUUUGAGCUAGUGAUGUUGGUCGAAUAGAAGGUGGCCCGCCGC [whbob_Ex_FMNB__2th219] | 65.8 nM |
| UGUAAGCGCGUAGAUACCAGCAGACGAGUGAUGUUCAAGAGAUUAAGGAAAAGAAAGUAAUGCCCUUGGCAGCUAAUCAUAAGCG [whbob_Ex_Theo_B_sa93] | 384 nM |
| GCCGUACGCAUGGAUACCAGUCUUAGAGUGAUGUUCUAAUCGAUUGCGCCUGGAUCAAUGGACCCUUGGCAGCCAUGCGUACGGC | 129 nM |
| UUUCGGCUCUGAGGAUAUUCGGACAAAUAUAGUGAUGUUGUAUAAGGAGGAGGGUGUUGGCAGUGAGGAGAAGGCAGAGGAGGAU [#07 K4 FMN B Exclusion] | 376 nM |
| UUUUUGGAGAAUUAUAGUGAUGUUAUGAAGGAGGAUAUCUGGAGAUGGAGAAGGCCUAGUGGCUCAGGGAUGGAGGGUGGGUGGG [ExFMNA.Y] | 704 nM |
| CCAUUCUUUUACGAUACCAGUCUAAUAUAUUGAAUCAAAACCCUCGCCGAGUGAUGUUCGGACCCUUGGCAGCGUCUGCGAGAGG [xwxxtkmullin] | 629 nM |
| UGACUGGACUGAAGGAGCGCGAAACUCCUAGUGAUGUUAGGAUAACGAGACAAAGUCUCGACGCAGGUAGGUCGCAGUCUAGUCU | 130 nM |
| AGAGUUAUGCGAGGAUAUGCGGUUAGUACUCAAAGAGUACUAACGCAGAGUGAUGUUCUGUGAAACGCAGAAGGUGCAUAACUCA [Omei KL FMN B SS B v3] | 153 nM |
| GGUAGCAUGAUGGAUACCAGUCCAAAUGGAGUGAUGUUCCAACAACAGGUUAGGCUGCUGGACCCUUGGCAGCCGUCAUGCUACC | 141 nM |
| CGGACGGUAUCGGCCGCCACUCUGAAGACAGUGAUGUUGUCCGUGCAGUAUUUAGGAAAGCCGCGGAGGACCGGGAUGCGUCACU [theeternabot_sameState_KL_Trp_B_48] | 374 nM |
| AGAUGACACGGAGGAUAUCCUAAUAUGGGUGAUGUUAGCGAUGUUGAAGGUGUAGUGAUGUUAUGCGGAGAAGGCCGUGUUGUUU [BDazzled - #22 - Exc. FMN B] | 103 nM |
| AAACAUUGGUCGGAUACCAGCUGAUCGGAAACGAUCUUGCUGGAGUGAUGUUCCAAGUAAAGCCCUUGGCAGCCGACCGAUGAAA [MAT - Same State Theophlline B - Mod of Eli - D20] | 140 nM |
| GGUAGUGCUAGCGAUACCAGUCAUAUCGCUCUGGAGUGAUGUUCCGGAACGUGCGGAGAAGACCCUUGGCAGCGCUUGACGGUGU [Exclusion Theophylline B GF5] | 218 nM |
| UGAUACCAGACGGCCGCCACUAGAGCUAGCAAAGCUAGCAAGUGAUGUUUGAGGAGUGAUGUUCCUAGGACCGGGUCUGGUAUCU [TrypBX 2 #Palindromic #SwitchBubble #StaticStem] | 103 nM |
| GGAUAGGACACAGGAUAUGGGCUAGGCAAGAAUAACUUGUCUAGCAAAUCCAUGAGGAGUGAUGUUCCAGAAGGGUGUCCUAUCG [FmnBX 1 C11+G75] | 431 nM |

Same assay, conditions: Eterna round: R107; input ligand: arginine 13.2 mM

| Sequence | apparent KD of K4 kissing-loop reporter |
| --- | --- |
| UGUUUUUACUGAAGGAGCGGCAAUUGAUACGUAGAUAUAGUGAUGUUAUAUAAGAUAGAGAGCCAGGUAGGUCGCAGAGUGUAUC [ExArgB.aB] | 188 nM |
| UUUAUAAAGUCGGCCGCCACUGGAUUUAUGUUUGUUUCGUCUGGAUCAAAGUGAUGUUUUGAGUCCAGGACCGGGACAUUUGUUA [whbob_Ex_Tryp_B_w38] | 74.8 nM |
| UCGAACGAUGGAAGGAGCGCUCGUCAGUCCUGCGAGUGAUGUUCGUGGGUAAAUAGUCGCGAGCAGGUAGGUCGCCAUCUUGGGC [Reriat] | 132 nM |
| CCAUCCGAGUCGGCCGCCACUUUGAGUGAUGUUUGGAGUCUGAGUCAACAUAAAUACUUAGUUUAAAGGACCGGGACUUCGGAUG [theeternabot_exclusion_KL_Trp_B_7] | 722 nM |
| UGGAGUUGACGAAAAGUCAACUCCUGAGAUACCAGUGACGAAAGUCACCCUUGGCAGCUCACUCCCAGUGAUGUUGGUUCAUAAG [#04 K4 Theophylline A Same State] | 370 nM |
| GGCACGGUGACGCGGCUGCCGUGCGCUUGGGAGGAUAUGUUUCGUGACAGAAGGCCCAGUGAUGUUGGGUCUGUUCAAAAGGACU [Edmatianri] | 104 nM |
| UGACUGGAUGGAAGGAGCGCUAAACUCCUAGUGAUGUUAGGGACACGAGGCAAAGCCUCGAAGCAGGUAGGUCGCCAUCUAGUCU [FiskerMod 22 - Jieux - Same State - Arginine B] | 148 nM |
| ACAGGAUCGAAAGAUCCUGAGCAGUCAAACCGAGGACCGGUACGGCCGCCACUCGGAGUGAUGUUCCGAAGACUGCAAAAUAAAA [#SwitchBubble 1] | 707 nM |
| AGUAAUGAGUGAUGUUCAAUUAGUAAGGAUACCAGUAAUUCAAAAUGCCCUUGGCAGCUUAACGCUACCAAUAGAUUAAUAAUGG [First try - Theophylline A] | 180 nM |
| UAUUCUUAUCUUAGUUGAUUUCUAAUUAAACGAGGACCGGUACGGCCGCCACUCGGUUAUGAGUGAUGUUCAUGGAAUUACAUAA [JR_SSTryptoA_Sub020] | 481 nM |
